This note sets out measurements from article PMC7898468, “TrkA-mediated endocytosis of p75-CTF prevents cholinergic neuron death upon γ-secretase inhibition” (Life Science Alliance, 2021).

Series [1] concerns the target HA-p75-CTF (truncated p75NTR construct that mimics the endogenously generated C-terminal fragment), wild type (UniProt P07174). The series can be described thus: non-reducing SDS-PAGE and Western blot; total membranes (and lysates) of HeLa cells transfected with p75-CTF constructs, 16 h with or without 10 uM compound E; sample buffer with 1% beta-mercaptoethanol keeps the C257 disulfide dimers; anti-p75NTR blot; shows only SDS-resistant disulfide dimers.

For series [2], the target named is endogenous p75-CTF of mouse dorsal root ganglia neurons (mouse (endogenous in dorsal root ganglia)). The series can be described thus: non-reducing SDS-PAGE and Western blot; lysate of dorsal root ganglia from P2 mice, 24 h at 37 C with or without compound E (10 uM).
Series [3] deals with the molecule itself. The series can be described thus: SDS-PAGE and Western blot with or without DTT; purified C101-p75-3xFLAG substrates, with or without DTT (20 mM), anti-FLAG blot.

In the case of “HA-p75-CTF (truncated p75NTR construct that mimics the endogenously generated C-terminal fragment), wild type (from UniProt P07174 245-425) (domain or fragment)”, the stoichiometry N in series [1] was 2.
For “endogenous p75-CTF of mouse dorsal root ganglia neurons (domain or fragment)”, in series [2], the stoichiometry N was found to be 2.

B1: C101-p75-wt-3xFlag (domain or fragment, rat)
chain: MVTTVMGSSQPVVTRGTTDNLIPVYCSILAAVVVGLVAYIAFKRWNSCKQNKQGANSRPVNQTPPPEGEKLHSDSGISVDSQSLHDQQTHTQTASGQALKG
notes: rat p75NTR, transmembrane domain and juxtamembrane region; Forms DTT-sensitive disulfide dimers; also called p75-C101-wt; C101-wt; source: COS1, transiently transfected, purified (anti-FLAG M2 agarose); not shown: 3xFLAG, C-terminal, kept
B1: the “stoichiometry N” value in series [3] turned out to be 2.
